Results on one substance are retold here after patent US20160346281A1.

This test deals with Myc-tagged Abl (Abl-Myc), Drosophila Abl (Drosophila melanogaster) (UniProt P00522). In words: cell-based or functional assay.
Chain of Myc-tagged Abl (Abl-Myc), Drosophila Abl (Drosophila melanogaster) (P00522 whole entry): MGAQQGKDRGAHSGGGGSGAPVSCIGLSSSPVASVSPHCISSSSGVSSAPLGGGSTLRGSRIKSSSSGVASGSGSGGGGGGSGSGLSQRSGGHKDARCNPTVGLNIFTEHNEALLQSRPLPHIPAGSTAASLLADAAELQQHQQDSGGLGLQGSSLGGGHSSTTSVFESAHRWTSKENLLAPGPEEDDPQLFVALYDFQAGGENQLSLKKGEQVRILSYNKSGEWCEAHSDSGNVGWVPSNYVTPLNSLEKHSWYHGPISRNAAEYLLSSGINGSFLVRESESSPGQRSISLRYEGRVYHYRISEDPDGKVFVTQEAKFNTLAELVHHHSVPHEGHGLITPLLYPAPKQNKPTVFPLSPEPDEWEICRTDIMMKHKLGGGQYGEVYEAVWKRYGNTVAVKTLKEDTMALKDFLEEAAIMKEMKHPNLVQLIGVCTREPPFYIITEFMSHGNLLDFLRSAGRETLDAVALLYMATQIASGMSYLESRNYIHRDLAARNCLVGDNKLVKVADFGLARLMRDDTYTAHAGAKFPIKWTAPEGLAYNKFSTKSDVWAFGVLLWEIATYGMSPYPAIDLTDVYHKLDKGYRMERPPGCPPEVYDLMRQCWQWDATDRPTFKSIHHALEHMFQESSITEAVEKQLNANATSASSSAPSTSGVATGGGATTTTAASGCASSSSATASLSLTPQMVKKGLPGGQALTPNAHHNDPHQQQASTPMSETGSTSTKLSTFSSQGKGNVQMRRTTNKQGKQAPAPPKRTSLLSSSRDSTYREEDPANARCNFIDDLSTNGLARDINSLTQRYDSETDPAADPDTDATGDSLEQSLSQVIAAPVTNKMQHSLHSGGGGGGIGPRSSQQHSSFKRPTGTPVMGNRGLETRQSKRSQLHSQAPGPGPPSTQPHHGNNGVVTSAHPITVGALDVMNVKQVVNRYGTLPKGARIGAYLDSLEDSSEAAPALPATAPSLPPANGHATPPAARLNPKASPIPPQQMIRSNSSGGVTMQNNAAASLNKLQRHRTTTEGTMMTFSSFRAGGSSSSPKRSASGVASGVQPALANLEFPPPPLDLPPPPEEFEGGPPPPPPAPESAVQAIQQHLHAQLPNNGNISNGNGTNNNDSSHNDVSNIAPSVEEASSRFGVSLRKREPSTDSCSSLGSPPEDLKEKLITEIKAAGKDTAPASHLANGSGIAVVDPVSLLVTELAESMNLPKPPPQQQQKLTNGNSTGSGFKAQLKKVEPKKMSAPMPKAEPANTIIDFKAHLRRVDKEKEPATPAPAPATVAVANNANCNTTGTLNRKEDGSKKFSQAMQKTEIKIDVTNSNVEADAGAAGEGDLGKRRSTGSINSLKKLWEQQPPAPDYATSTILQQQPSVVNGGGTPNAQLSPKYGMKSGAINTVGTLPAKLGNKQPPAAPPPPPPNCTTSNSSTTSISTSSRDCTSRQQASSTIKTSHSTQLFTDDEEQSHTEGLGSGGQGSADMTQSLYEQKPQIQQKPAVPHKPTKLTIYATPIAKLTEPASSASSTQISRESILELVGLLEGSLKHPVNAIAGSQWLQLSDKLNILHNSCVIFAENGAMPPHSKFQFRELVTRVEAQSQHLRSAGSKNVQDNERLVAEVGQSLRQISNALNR

Take “GFP-tagged Dscam (Dscam[3.36.25.2]::GFP) (receptor)”: the Abl kinase activation (anti-phospho-Y412-Abl blot intensity normalized to total Abl-Myc, S2 cell lysates) is 2.6 fold.
